The source of these data is patent publication US20200377590A1 (Hoffmann-La Roche, published 2020).

Positions count from the first letter of the chain named.

For the assay, the target named is T1, CD81 (UniProt P60033 1-236, limits assumed).
T1 construct: whole, on cells; also called CD81 receptor
T1 sequence (looked up): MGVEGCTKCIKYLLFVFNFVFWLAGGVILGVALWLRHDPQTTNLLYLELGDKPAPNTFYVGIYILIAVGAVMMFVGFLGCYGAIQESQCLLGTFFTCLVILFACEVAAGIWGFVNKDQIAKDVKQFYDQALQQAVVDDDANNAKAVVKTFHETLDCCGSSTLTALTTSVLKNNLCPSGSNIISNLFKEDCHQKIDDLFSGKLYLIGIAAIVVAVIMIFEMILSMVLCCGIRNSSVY
In words: cell ELISA.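 Also: antibody binding to HuH7 cells expressing CD81 versus a CD81-negative HuH7 control line, bound antibody detected by secondary reagent, absorbance at 450 nm with 620 nm reference.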 For orientation: ELISA stands for enzyme-linked immunosorbent assay.

Description: For the binding cell ELISA assay, HuH7-Rluc-H3 (positive cell line expressing CD81) and HuH7-Rluc-L1 (negative control cell line) were propagated in F-12 DMEM medium with 10% FCS at 37° C. and 5% CO₂. On day 1, the cells were trypsinized at approximately 90% confluence and resuspended at 4×10⁵ cells/mL. […] On day 2, the antibody samples to be tested were prepared in a separate polypropylene round bottom plate with a twofold desired concentration with a final volume of 120 μl. All of the assay samples were diluted in cell culture medium. […] After fixation, each well was washed 3 times with 200 μL PBS/0.05% Tween. The secondary incubation step for detection of bound anti-CD81 antibodies was performed for 2 h at room temperature on a reciprocal shaker. […] Each well was washed three times with 200 μL PBS/0.05% Tween to remove unbound antibodies. […] The absorbance was read using the ELISA Tecan reader at 450 nm with 620 nm reference wavelength.

B1: CD81K13 HC 5b-hVH_1_69-GA / LC 01-hVK_3_15 (antibody, V domains shown)
VH: QVQLVQSGAELVKPGSSVKVSCKASGFNFKDSYLHWVRQAPGQGLEWMGRIDTGNGNVKFDPKFQGRVTITTDESTSTAYMELSSLRSEDTAVYYCVPYGYGFHSWGQGTLVTVSS
VL: EIVMTQSPATLSVSPGERATLSCRASENIYRTLAWYQQKPGQAPRLLIYGATTRATGIPARFSGSGSGTEFTLTISSLQSEDFGVYYCQHFWGTPWTFGQGTKVEIK
notes: human constant region
Turning to B1, the ELISA data is 0.739.

B2: CD81K13 HC 05-hVH_1_69 / LC 05-hVK_1_39 (antibody, V domains shown)
VH: B1 VH with L11V, V12K
VL: DIQMTQSPSSLSASVGDRVTITCRASENIYRTLAWYQQKPGKAPKLLIYAATTLASGVPSRFSGSGSGTDFTLTISSLQPEDFATYYCQHFWGTPWTFGQGTKVEIK
notes: human constant region
B2 gave an ELISA data of 0.91.

B3: CD81K13 HC 5b-hVH_1_69-GA / LC 07-hVK_1_27 (antibody, V domains shown)
VH: B1 VH
VL: B2 VL with A43V, F83V, A84G, H90K
notes: human constant region
On to B3, for which the ELISA data turned out to be 0.11.

B4: CD81K13 HC 05-hVH_1_69 / LC 06-hVK_1_39 (antibody, V domains shown)
VH: B1 VH with L11V, V12K
VL: B2 VL with A84G
notes: human constant region
In the case of B4, the ELISA data is 0.603.

B5: CD81K13 HC 5b-hVH_1_69 / LC 04-hVK_1_9 (antibody, V domains shown)
VH: B1 VH
VL: B2 VL with M4L, S10F, D70E, A84G
notes: human constant region
As for B5, the ELISA data worked out at 0.695.

B6: CD81K13 HC 06-hVH_1_3 / LC 03-hVK_1_9 (antibody, V domains shown)
VH: B1 VH with L11V, V12K, S16A, F27Y, N28T, G44R, E74T, T76A, V97A
VL: B2 VL with M4L, S10F, D70E
notes: human constant region
Consider B6, for which the ELISA data is 0.352.

B7: CD81K13 HC 5b-hVH_1_69-GA / LC 05-hVK_1_39 (antibody, V domains shown)
VH: B1 VH
VL: B2 VL
notes: human constant region
As to B7, the ELISA data stood at 0.858.

B8: CD81K13 HC 07-hVH_1_3 / LC 01-hVK_3_15 (antibody, V domains shown)
VH: B1 VH with L11V, V12K, S16A, F27Y, N28T, E74T, T76A, V97A
VL: B1 VL
notes: human constant region
Turning to B8, the ELISA data turned out to be 0.459.

B9: CD81K13 HC 5b-hVH_1_69 / LC 03-hVK_1_9 (antibody, V domains shown)
VH: B1 VH
VL: B2 VL with M4L, S10F, D70E
notes: human constant region
For B9, the ELISA data worked out at 0.73.

B10: CD81K13 HC 06-hVH_1_3 / LC 04-hVK_1_9 (antibody, V domains shown)
VH: B1 VH with L11V, V12K, S16A, F27Y, N28T, G44R, E74T, T76A, V97A
VL: B2 VL with M4L, S10F, D70E, A84G
notes: human constant region
Take B10: the ELISA data came out at 0.371.

B11: CD81K13 HC 06-hVH_1_3 / LC 01-hVK_3_15 (antibody, V domains shown)
VH: B1 VH with L11V, V12K, S16A, F27Y, N28T, G44R, E74T, T76A, V97A
VL: B1 VL
notes: human constant region
B11 displayed an ELISA data of 0.547.

B12: CD81K13 HC 03-hVH_1_69 / LC 06-hVK_1_39 (antibody, V domains shown)
VH: B1 VH with L11V, V12K, F60Y, D61A, P62Q, T72A, V97A
VL: B2 VL with A84G
notes: human constant region
B12 displayed an ELISA data of 0.484.

B13: CD81K13 HC 05-hVH_1_69 / LC 03-hVK_1_9 (antibody, V domains shown)
VH: B1 VH with L11V, V12K
VL: B2 VL with M4L, S10F, D70E
notes: human constant region
B13 had an ELISA data of 0.787.

B14: CD81K13 HC 06-hVH_1_3 / LC 5b-hVK_1_39-GA (antibody, V domains shown)
VH: B1 VH with L11V, V12K, S16A, F27Y, N28T, G44R, E74T, T76A, V97A
VL: B2 VL with A50G, S56D
notes: human constant region
For the molecule B14, the ELISA data was 0.37.

B15: CD81K13 HC 07-hVH_1_3 / LC 03-hVK_1_9 (antibody, V domains shown)
VH: B1 VH with L11V, V12K, S16A, F27Y, N28T, E74T, T76A, V97A
VL: B2 VL with M4L, S10F, D70E
notes: human constant region
B15 registered an ELISA data of 0.331.

B16: CD81K13 HC 06-hVH_1_3 / LC 5b-hVK_1_39 (antibody, V domains shown)
VH: B1 VH with L11V, V12K, S16A, F27Y, N28T, G44R, E74T, T76A, V97A
VL: B2 VL with A50G, S56D
notes: human constant region
As to B16, the ELISA data was 0.388.

B17: CD81K13 HC 06-hVH_1_3 / LC 05-hVK_1_39 (antibody, V domains shown)
VH: B1 VH with L11V, V12K, S16A, F27Y, N28T, G44R, E74T, T76A, V97A
VL: B2 VL
notes: human constant region
B17 showed an ELISA data of 0.315.

B18: CD81K13 HC 06-hVH_1_3 / LC 06-hVK_1_39 (antibody, V domains shown)
VH: B1 VH with L11V, V12K, S16A, F27Y, N28T, G44R, E74T, T76A, V97A
VL: B2 VL with A84G
notes: human constant region
In turn, B18 yielded an ELISA data of 0.323.

B19: CD81K13 HC 06-hVH_1_3 / LC 07-hVK_1_27 (antibody, V domains shown)
VH: B1 VH with L11V, V12K, S16A, F27Y, N28T, G44R, E74T, T76A, V97A
VL: B2 VL with A43V, F83V, A84G, H90K
notes: human constant region
B19 came in with an ELISA data of 0.078.

B20: CD81K13 HC 5b-hVH_1_69 / LC 05-hVK_1_39 (antibody, V domains shown)
VH: B1 VH
VL: B2 VL
notes: human constant region
Molecule B20 yielded an ELISA data of 0.905.

B21: CD81K13 HC 03-hVH_1_69 / LC 05-hVK_1_39 (antibody, V domains shown)
VH: B1 VH with L11V, V12K, F60Y, D61A, P62Q, T72A, V97A
VL: B2 VL
notes: human constant region
On to B21, for which the ELISA data is 0.525.

B22: CD81K13 HC 07-hVH_1_3 / LC 1b-hVK_3_15 (antibody, V domains shown)
VH: B1 VH with L11V, V12K, S16A, F27Y, N28T, E74T, T76A, V97A
VL: B1 VL with R54L, T56D, G84A
notes: human constant region
Molecule B22 returned an ELISA data of 0.367.

B23: CD81K13 HC 5b-hVH_1_69-GA / LC 1c-hVK_3_15 (antibody, V domains shown)
VH: B1 VH
VL: B1 VL with R54L, T56D
notes: human constant region
As for B23, the ELISA data was 0.794.

B24: CD81K13 HC 5b-hVH_1_69 / LC 5b-hVK_1_39 (antibody, V domains shown)
VH: B1 VH
VL: B2 VL with A50G, S56D
notes: human constant region
B24 registered an ELISA data of 0.463.

B25: CD81K13 HC 07-hVH_1_3 / LC 1c-hVK_3_15 (antibody, V domains shown)
VH: B1 VH with L11V, V12K, S16A, F27Y, N28T, E74T, T76A, V97A
VL: B1 VL with R54L, T56D
notes: human constant region
B25: the ELISA data stood at 0.337.

B26: CD81K13 HC 03-hVH_1_69 / LC 03-hVK_1_9 (antibody, V domains shown)
VH: B1 VH with L11V, V12K, F60Y, D61A, P62Q, T72A, V97A
VL: B2 VL with M4L, S10F, D70E
notes: human constant region
In turn, B26 showed an ELISA data of 0.208.

B27: CD81K13 HC 5b-hVH_1_69-GA / LC 04-hVK_1_9 (antibody, V domains shown)
VH: B1 VH
VL: B2 VL with M4L, S10F, D70E, A84G
notes: human constant region
In the case of B27, the ELISA data worked out at 0.786.

B28: CD81K13 HC 06-hVH_1_3 / LC 1c-hVK_3_15 (antibody, V domains shown)
VH: B1 VH with L11V, V12K, S16A, F27Y, N28T, G44R, E74T, T76A, V97A
VL: B1 VL with R54L, T56D
notes: human constant region
For B28, the ELISA data is 0.34.

B29: CD81K13 HC 03-hVH_1_69 / LC 5b-hVK_1_39 (antibody, V domains shown)
VH: B1 VH with L11V, V12K, F60Y, D61A, P62Q, T72A, V97A
VL: B2 VL with A50G, S56D
notes: human constant region
Take B29: the ELISA data was 0.546.

B30: CD81K13 HC 05-hVH_1_69 / LC 04-hVK_1_9 (antibody, V domains shown)
VH: B1 VH with L11V, V12K
VL: B2 VL with M4L, S10F, D70E, A84G
notes: human constant region
Turning to B30, the ELISA data stood at 0.685.

B31: CD81K13 HC 5b-hVH_1_69 / LC 07-hVK_1_27 (antibody, V domains shown)
VH: B1 VH
VL: B2 VL with A43V, F83V, A84G, H90K
notes: human constant region
Molecule B31 came in with an ELISA data of 0.114.

B32: CD81K13 HC 05-hVH_1_69 / LC 5b-hVK_1_39-GA (antibody, V domains shown)
VH: B1 VH with L11V, V12K
VL: B2 VL with A50G, S56D
notes: human constant region
Molecule B32 gave an ELISA data of 0.551.

B33: CD81K13 HC 06-hVH_1_3 / LC 1b-hVK_3_15 (antibody, V domains shown)
VH: B1 VH with L11V, V12K, S16A, F27Y, N28T, G44R, E74T, T76A, V97A
VL: B1 VL with R54L, T56D, G84A
notes: human constant region
The molecule B33 had an ELISA data of 0.394.

B34: CD81K13 HC 5b-hVH_1_69 / LC 5b-hVK_1_39-GA (antibody, V domains shown)
VH: B1 VH
VL: B2 VL with A50G, S56D
notes: human constant region
The molecule B34 returned an ELISA data of 0.646.

B35: CD81K13 HC 5b-hVH_1_69-GA / LC 06-hVK_1_39 (antibody, V domains shown)
VH: B1 VH
VL: B2 VL with A84G
notes: human constant region
B35: the ELISA data came out at 0.528.

B36: CD81K13 HC 03-hVH_1_69 / LC 5b-hVK_1_39-GA (antibody, V domains shown)
VH: B1 VH with L11V, V12K, F60Y, D61A, P62Q, T72A, V97A
VL: B2 VL with A50G, S56D
notes: human constant region
Molecule B36 registered an ELISA data of 0.552.

B37: CD81K13 HC 05-hVH_1_69 / LC 5b-hVK_1_39 (antibody, V domains shown)
VH: B1 VH with L11V, V12K
VL: B2 VL with A50G, S56D
notes: human constant region
Consider B37, for which the ELISA data came out at 0.692.

B38: CD81K13 HC 5b-hVH_1_69-GA / LC 03-hVK_1_9 (antibody, V domains shown)
VH: B1 VH
VL: B2 VL with M4L, S10F, D70E
notes: human constant region
B38 registered an ELISA data of 0.788.

B39: CD81K13 HC 5b-hVH_1_69-GA / LC 5b-hVK_1_39-GA (antibody, V domains shown)
VH: B1 VH
VL: B2 VL with A50G, S56D
notes: human constant region
Consider B39, for which the ELISA data turned out to be 0.684.

B40: CD81K13 HC 5b-hVH_1_69-GA / LC 1b-hVK_3_15 (antibody, V domains shown)
VH: B1 VH
VL: B1 VL with R54L, T56D, G84A
notes: human constant region
B40 had an ELISA data of 0.648.

B41: CD81K13 HC 03-hVH_1_69 / LC 04-hVK_1_9 (antibody, V domains shown)
VH: B1 VH with L11V, V12K, F60Y, D61A, P62Q, T72A, V97A
VL: B2 VL with M4L, S10F, D70E, A84G
notes: human constant region
As for B41, the ELISA data is 0.188.

B42: CD81K13 HC 5b-hVH_1_69 / LC 06-hVK_1_39 (antibody, V domains shown)
VH: B1 VH
VL: B2 VL with A84G
notes: human constant region
Consider B42, for which the ELISA data came out at 0.522.

B43: CD81K13 HC 5b-hVH_1_69-GA / LC 5b-hVK_1_39 (antibody, V domains shown)
VH: B1 VH
VL: B2 VL with A50G, S56D
notes: human constant region
Regarding B43, the ELISA data stood at 0.737.
